These results are taken from paper PMC7913688, “Human Rev1 relies on insert-2 to promote selective binding and accurate replication of stabilized G-quadruplex motifs”.

Series [1] concerns the target T1, hRev1 330-833 polymerase core (human, UniProt Q9UBZ9 330-833).
T1 sequence: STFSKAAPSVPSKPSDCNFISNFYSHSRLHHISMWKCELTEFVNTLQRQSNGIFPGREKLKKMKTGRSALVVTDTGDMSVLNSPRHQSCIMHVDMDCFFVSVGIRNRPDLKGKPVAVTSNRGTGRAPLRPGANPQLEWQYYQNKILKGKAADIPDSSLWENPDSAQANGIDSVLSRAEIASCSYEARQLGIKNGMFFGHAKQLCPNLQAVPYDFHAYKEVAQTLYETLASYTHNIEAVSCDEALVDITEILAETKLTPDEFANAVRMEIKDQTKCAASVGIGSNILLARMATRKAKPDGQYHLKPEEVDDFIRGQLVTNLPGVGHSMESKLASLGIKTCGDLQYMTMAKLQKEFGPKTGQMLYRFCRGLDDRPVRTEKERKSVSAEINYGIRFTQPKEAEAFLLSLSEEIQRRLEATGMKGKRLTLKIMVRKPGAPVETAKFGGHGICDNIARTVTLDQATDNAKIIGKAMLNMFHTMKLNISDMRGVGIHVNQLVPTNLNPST
The series can be described thus: fluorescence polarization; 100 mM KCl; Fluorescence polarization: 1 nM FAM-DNA, 100 mM KCl or LiCl; DNA annealed in 50 mM HEPES pH 7.5; full buffer as in cited ref 17, temperature not stated. Footprinting: 50 mM HEPES pH 7.5, 100 mM KCl, 10 uM protein, 30 uM ssDNA, room temperature. Particulars: protein: recombinant.

The target of series [2] is T1, hRev1 330-833 polymerase core. Nature of the series: fluorescence polarization; 100 mM LiCl; Fluorescence polarization: 1 nM FAM-DNA, 100 mM KCl or LiCl; DNA annealed in 50 mM HEPES pH 7.5; full buffer as in cited ref 17, temperature not stated. Footprinting: 50 mM HEPES pH 7.5, 100 mM KCl, 10 uM protein, 30 uM ssDNA, room temperature. Particulars: protein: recombinant; label: 5'-FAM.

Series [3] has the same target. The series can be described thus: fluorescence polarization; 100 mM KCl (text: 406 +/- 38); Fluorescence polarization: 1 nM FAM-DNA, 100 mM KCl or LiCl; DNA annealed in 50 mM HEPES pH 7.5; full buffer as in cited ref 17, temperature not stated. Footprinting: 50 mM HEPES pH 7.5, 100 mM KCl, 10 uM protein, 30 uM ssDNA, room temperature. The settings on record: protein: recombinant; label: 5'-FAM; hybrid G4 in K+.

The target is the same in series [4]. The series can be described thus: fluorescence polarization; 100 mM KCl (text: 1246 +/- 196); Fluorescence polarization: 1 nM FAM-DNA, 100 mM KCl or LiCl; DNA annealed in 50 mM HEPES pH 7.5; full buffer as in cited ref 17, temperature not stated. Footprinting: 50 mM HEPES pH 7.5, 100 mM KCl, 10 uM protein, 30 uM ssDNA, room temperature. Particulars: protein: recombinant; label: 5'-FAM.

For series [5] the target is unchanged. Nature of the series: fluorescence polarization; 100 mM KCl (text: 127 +/- 14); Fluorescence polarization: 1 nM FAM-DNA, 100 mM KCl or LiCl; DNA annealed in 50 mM HEPES pH 7.5; full buffer as in cited ref 17, temperature not stated. Footprinting: 50 mM HEPES pH 7.5, 100 mM KCl, 10 uM protein, 30 uM ssDNA, room temperature. The settings on record: protein: recombinant; label: 5'-FAM; antiparallel G4 in K+.

Series [6] has the same target. Nature of the series: fluorescence polarization; 100 mM LiCl (text: 139 +/- 17); Fluorescence polarization: 1 nM FAM-DNA, 100 mM KCl or LiCl; DNA annealed in 50 mM HEPES pH 7.5; full buffer as in cited ref 17, temperature not stated. Footprinting: 50 mM HEPES pH 7.5, 100 mM KCl, 10 uM protein, 30 uM ssDNA, room temperature. Particulars: protein: recombinant; label: 5'-FAM; antiparallel G4 in K+.

Where [7] appears, read: label: 5'-FAM on template, parallel G4 in 5' overhang 18 nt, 11 bp duplex.

Regarding AGCGCGCTGTGCGAAGAGCGAATATGAGATGAT (ssDNA) [Non-G4 KRAS control ss], the Kd in series [1] (label: 5'-FAM) came to 840 ± 90 nM; in series [2] it was 1620 ± 800 nM.
Take AGGGCGGTGTGGGAAGAGGGAATATGAGATGAT (structured_DNA) [KRAS 22RT ss G4]: the Kd in series [1] (label: 5'-FAM, parallel G4 in K+) came to 52 ± 10 nM.

B1: Non-G4 KRAS primer-template (mixed)
DNA 1: AGCGCGCTGTGCGAAGAGCGAATATGAGATGAT
DNA 2: ATCATCTCATA
Turning to B1, the Kd in series [1] (label: 5'-FAM on template, 5' overhang 22 nt, 11 bp duplex) turned out to be 1120 ± 80 nM.

B2: KRAS 22RT primer-template (mixed)
DNA 1: AGGGCGGTGTGGGAAGAGGGAATATGAGATGAT
DNA 2: ATCATCTCATA
B2: the Kd in series [1] (label: 5'-FAM on template, parallel G4 in 5' overhang 22 nt, 11 bp duplex) was 120 ± 10 nM.

B3: Myc 14/23 primer-template (mixed)
DNA 1: AGGGTGGGTAGGGTGGGTTATGAGATGAT
DNA 2: ATCATCTCATA
In the case of B3, the Kd in series [1] (setting [7]) amounted to 59 ± 9 nM.
Take AGGGAGGGTGGGAAGGGTTATGAGATGAT (structured_DNA) [Myc 2/11 ss G4]: in series [1] (label: 5'-FAM, parallel G4 (1:1:2 loops) in K+), the Kd came out at 22 ± 3 nM.

B4: Rev1-prom primer-template (mixed)
DNA 1: AGGGCGGGGCCGGGGAGGGTATGAGATGAT
DNA 2: ATCATCTCATA
For B4, the Kd in series [1] (label: 5'-FAM on template, parallel G4 in 5' overhang 19 nt, 11 bp duplex) came out at 11 ± 2 nM.

B5: Myc 2/11 primer-template (mixed)
DNA 1: AGGGAGGGTGGGAAGGGTTATGAGATGAT
DNA 2: ATCATCTCATA
On to B5, for which the Kd in series [1] (setting [7]) was 45 ± 6 nM.
For the molecule AGCGGCGCGCGCTTTAGGAAAAGCGCGCGTTATGAGATGAT (ssDNA) [Non-G4 Bcl2 control ss], the Kd in series [1] (label: 5'-FAM) turned out to be 830 ± 310 nM; in series [2], 750 ± 340 nM.

B6: Bcl2 1245 primer-template (mixed)
DNA 1: AGGGGCGGGCGCTTTAGGAAAAGGGCGGGTTATGAGATGAT
DNA 2: ATCATCTCATA
B6: the Kd in series [1] (label: 5'-FAM on template, parallel G4 in 5' overhang 30 nt, 11 bp duplex) was determined as 97 ± 20 nM.

B7: Non-G4 Bcl2 primer-template (mixed)
DNA 1: AGCGGCGCGCGCTTTAGGAAAAGCGCGCGTTATGAGATGAT
DNA 2: ATCATCTCATA
For the molecule B7, in series [1] (label: 5'-FAM on template, 5' overhang 30 nt, 11 bp duplex), the Kd was found to be 660 ± 120 nM.
On to AGGGGCGGGCGCTTTAGGAAAAGGGCGGGTTATGAGATGAT (structured_DNA) [Bcl2 1245 ss G4], for which the Kd in series [1] (label: 5'-FAM, parallel G4 (13-nt loop) in K+) amounted to 76 ± 16 nM.
As for TGCTTGCTGTGCTTGCTATGAGATGAT (ssDNA) [Non-G4 TBA control ss], the Kd stood at 380 ± 40 nM in series [1] (label: 5'-FAM) and 310 ± 40 nM in series [2].
As for TTGGGTTAGGGTTAGGGTTAGGGATATGAGATGAT (structured_DNA) [hTelo-4 ss G4], in series [3], the Kd was found to be 410 ± 40 nM.
For TTGCGTTAGCGTTAGCGTTAGCGATATGAGATGAT (ssDNA) [Non-G4 Telo-4 control ss], the Kd turned out to be 920 ± 120 nM in series [2] and 1200 ± 200 nM in series [4].

B8: hTelo-4 primer-template (mixed)
DNA 1: TTGGGTTAGGGTTAGGGTTAGGGATATGAGATGAT
DNA 2: ATCATCTCATA
Take B8: the Kd in series [1] (label: 5'-FAM on template, hybrid G4 in 5' overhang 24 nt, 11 bp duplex) is 840 ± 50 nM.

B9: Non-G4 Rev1-prom primer-template (mixed)
DNA 1: AGCGCGCGGCCGGCGAGCGTATGAGATGAT
DNA 2: ATCATCTCATA
For the molecule B9, in series [1] (label: 5'-FAM on template, 5' overhang 19 nt, 11 bp duplex), the Kd is 154 ± 30 nM.
As to AGGGCGGGGCCGGGGAGGGTATGAGATGAT (structured_DNA) [Rev1-prom ss G4], in series [1] (label: 5'-FAM, parallel G4 (1:4:1 loops as stated) in K+), the Kd was 13 ± 3 nM.

B10: TBA primer-template (mixed)
DNA 1: TGGTTGGTGTGGTTGGTATGAGATGAT
DNA 2: ATCATCTCATA
Regarding B10, the Kd in series [1] (label: 5'-FAM on template, antiparallel G4 in 5' overhang 16 nt, 11 bp duplex) worked out at 165 ± 25 nM.
Consider TGGTTGGTGTGGTTGGTATGAGATGAT (structured_DNA) [TBA ss G4], for which the Kd in series [5] was 130 ± 10 nM; in series [6], 140 ± 20 nM.
Turning to AGCGCGCGGCCGGCGAGCGTATGAGATGAT (ssDNA) [Non-G4 Rev1-prom control ss], the results for the Kd in series [1] (label: 5'-FAM) and in series [2] were 370 ± 70 nM and 260 ± 120 nM, respectively.
